Test results reported in patent US20180064827.

Assays:
Experiment in all cases: cell_activity
ZFN 63342 (synthetic) = conditions: pair with 63341, Hepa1-6, 40 ug/mL
ZFN 63238 (synthetic) = conditions: pair with 63236, Hepa1-6, 40 ug/mL
ZFN 60287 (synthetic) = conditions: pair with 60289, K562
ZFN 63194 (synthetic) = conditions: pair with 63195, Hepa1-6, 40 ug/mL
ZFN 63375 (synthetic) = conditions: pair with 63374, Hepa1-6, 40 ug/mL
ZFN 63411 (synthetic) = conditions: pair with 63410, Hepa1-6, 40 ug/mL
ZFN 63410 (synthetic) = conditions: pair with 63411, Hepa1-6, 40 ug/mL
ZFN 63341 (synthetic) = conditions: pair with 63342, Hepa1-6, 40 ug/mL
ZFN 63195 (synthetic) = conditions: pair with 63194, Hepa1-6, 40 ug/mL
ZFN 63236 (synthetic) = conditions: pair with 63238, Hepa1-6, 40 ug/mL
ZFN 63374 (synthetic) = conditions: pair with 63375, Hepa1-6, 40 ug/mL

CTGCTCCTTGCACGAAGGTCACATTCAG (double strand) [mouse KLKB1 63342 site]
activity (ZFN 63342 (synthetic)): 96.8 % indel

GCAGAGTGCTGGAAAATATCCATGGGGC (double strand) [mouse KLKB1 63238 site]
activity (ZFN 63238 (synthetic)): 92.5 % indel

CGGAGCTCACCCTGGCCGAGTTGAGGCA (double strand) [human PCSK9 60287 site]
activity (ZFN 60287 (synthetic)): 73.1 % indel

AAGGACTTGATATGAGAGGGTCCAACTT (double strand) [mouse KLKB1 63194 site]
activity (ZFN 63194 (synthetic)): 89.8 % indel

TGCATGCCATAGGTGATCCTAGTTGGGG (double strand) [mouse KLKB1 63375 site]
activity (ZFN 63375 (synthetic)): 93.7 % indel

TTCACTTGCAGGCTGACCTGCCATGGCC (double strand) [mouse KLKB1 63411 site]
activity (ZFN 63411 (synthetic)): 84.7 % indel

TCTTTAGGGGAGTGGCCATGGCAGGTCA (double strand) [mouse KLKB1 63410 site]
activity (ZFN 63410 (synthetic)): 84.7 % indel

TTGACTTTGAAGGGGAAGAACTGAATGT (double strand) [mouse KLKB1 63341 site]
activity (ZFN 63341 (synthetic)): 96.8 % indel

TTGTCGGTCTTAGAGATATTAAAGTTGG (double strand) [mouse KLKB1 63195 site]
activity (ZFN 63195 (synthetic)): 89.8 % indel

CCGCTGAGTTCACAGGTTGCCCCATGGA (double strand) [mouse KLKB1 63236 site]
activity (ZFN 63236 (synthetic)): 92.5 % indel

GGGAGCCATCTGTGGATAACCTTAAGGA (double strand) [mouse KLKB1 63374 site]
activity (ZFN 63374 (synthetic)): 93.7 % indel
